Data published in FireProtDB (doi:10.1002/prot.340080106).

B1: Protein S100-G, P02633 (parent)
chain: MSAKKSPEELKGIFEKYAAKEGDPNQLSKEELKLLLQTEFPSLLKGPSTLDELFEELDKNGDGEVSFEEFQVLVKKISQ

Variants of: B1
Settings: Bos taurus; pH 7; 25 °C; Urea; CD; PIPES-KOH 20 mM; reversible: yes; structure 1IGV; whole UniProt chain shown

| Variant | ddG of mutation (higher = less stable) [kcal/mol] | denaturant midpoint (higher = more stable) [M] | unfolding free energy [kcal/mol] |
| --- | --- | --- | --- |
| MSAKKSPEELKGIFEKYAAKEGNPNQLSKQELKLLLQTEFPSLLKGPSTLDELFEELDKNGDGEVSFEEFQVLVKKISQ [D23N E30Q] | -0.52 | 5.8 | 0.81 |
| MSAKKSPEELKGIFEKYAAKQGNPNQLSKQELKLLLQTEFPSLLKGPSTLDELFEELDKNGDGEVSFEEFQVLVKKISQ [E21Q D23N E30Q] | -0.93 | 6.1 | 1.22 |
| MSAKKSPEELKGIFEKYAAKQGNPNQLSKEELKLLLQTEFPSLLKGPSTLDELFEELDKNGDGEVSFEEFQVLVKKISQ [E21Q D23N] | -1.19 | 6.2 | 1.48 |
| MSAKKSPEELKGIFEKYAAKQGDPNQLSKEELKLLLQTEFPSLLKGPSTLDELFEELDKNGDGEVSFEEFQVLVKKISQ [E21Q] | -0.38 | 5.6 | 0.67 |
